We go through five compounds from US9770493B2 (DSM IP ASSETS B.V., priority 2008, dated 2017).

On the set-up of data set [1]: species or system human. The following applies: in vivo. An excerpt: The aim of the present study was to investigate in healthy volunteers plasma Trp/LNAA profiles and mood after the consumption of different tryptophan containing preparations.
Eighteen healthy students (9 males and 9 females: age between 18-30 years) participated in the study. Exclusion criteria for participation were chronic and current illness, history of psychiatric or medical illness, use of medication or drugs, alcohol consumption (>2 units/day), metabolic-, hormonal- or intestinal diseases and irregular diets or deviant eating habits (assessed by health and life-style questionnaires). Subjects participating in the experiment were in the normal range for the Body-Mass Index (BMI in kg/m^2 between 20-25) and female subjects are matched for contraception. Women participated during their mid-late follicular phase (day 4-10), while women using contraception participated when they actually used the contraception pill. […] All subjects participating in the experiment signed an Informed Consent Form. This study was conducted according to the EC principles of Good Clinical Practice (GCP) adopted by the 52nd WMA General Assembly, Edinburgh, Scotland, October 2000.
Subjects were instructed to fast overnight; only water or tea without sugar was permitted. During […] experimental morning sessions, subjects visited the laboratory to monitor plasma Trp/LNAA concentrations and mood following the intake of a drink containing different Trp or LNAA concentrations. The order of presentation of the various drinks was counterbalanced and the four experimental days were separated by a one-week period. On each experimental morning, a 312 ml drink was provided containing different tryptophan (Trp) or LNAA concentrations (Table 2). All drinks contained 0.10 g sweetener (acesulfame) and were filled up with plain water in order to reach 312 mL. A research assistant blind to the dietary conditions conducted the administration of the different drinks.
Blood samples were collected in duplicate before and 15, 30, 60, 90, 120, 180 and 210 minutes after ingestion in 5 ml vacutainer tubes containing sodium heparine and were then centrifuged at 5000 rpm for 5 min at 4° C. The resulting supernatants were mixed with sulfasalicyl acid (4 mg/100 microliter) and directly stored at −80° C. until analysis. Plasma amino acid analysis was conducted with HPLC, making use of a 2-3 μm Bischof Spherisorb ODS II column as described by van Eijk et al (J. Chromatogr. 1993: 620: 143-148). The plasma Trp/LNAA ratios were calculated by dividing the plasma molar tryptophan concentration by the sum of the plasma molar concentrations of the large neutral amino acids valine, isoleucine, leucine, tyrosine and phenylalanine. Statistical analysis took place by means of repeated measures multivariate and univariate analyses of variance (MANOVA and ANOVA) using the General Linear Model (GLM: SPSS 12.0 for Windows). All statistics were evaluated at a significance level of P=0.05.

For data set [2], the system named is healthy volunteers. Kind of data set: Profile of Mood States (POMS) after drinks with different tryptophan sources (Example 6). The data set is classed as in vivo, human. Conditions: for mood changes (POMS total mood scores): after the intake, over the session.
Protocol: Subjects were instructed to fast overnight; only water or tea without sugar was permitted. During five experimental morning sessions, subjects visited the laboratory to monitor plasma Trp/LNAA concentrations and mood following the intake of a drink containing different Trp or LNAA concentrations. The order of presentation of the various drinks was counterbalanced and the four experimental days were separated by a one-week period. On each experimental morning, a 312 ml drink was provided containing different tryptophan (Trp) or LNAA concentrations (Table 2). All drinks contained 0.10 g sweetener (acesulfame) and were filled up with plain water in order to reach 312 mL. A research assistant blind to the dietary conditions conducted the administration of the different drinks.
The POMS comprises five different subscales for mood; ranging from Anger, Depression, Fatigue and Tension that refer to a negative mood state, to Vigor concerning a positive mood.
Data set [3] addresses T1, pepsin (Sus scrofa, UniProt P00791).
T1 construct: purchased Sigma
Kind of data set: Test for protease resistancy (pepsin pH 4, SDS-PAGE). The data set is classed as in vitro ADME. Conditions: pepsin 1% w/w, 2 hours at 37 degrees C. The procedure: To test its digestibility in the human stomach, a 5% (w/w) solution of the intact protein was incubated with pepsin (Sigma; 1% w/w pepsin to intact protein) for 2 hours at 37 degrees C. in a Mc Ilvane buffer (0.2 M citric acid plus Na2HPO4) pH 4.0. The degree of protease resistancy is defined as the percentage of the protein that is not affected by the pepsin incubation. “Not affected” meaning that the molecular weight of the protein has not changed as a result of the pepsin incubation; “percentage of the protein” meaning the area under the curve after digestion times 100, divided by the area under the curve prior to digestion; “area under the curve” is the area of the protein having the initial molecular weight as provided by the quantitative analysis method used (see further).
Molecular weights are compared according to SDS-PAGE followed by staining according to the protocol specified hereunder. After staining of the gel, a digital image is prepared using the OptiGo imaging system (Isogen Life Science; www.isogen-life-science.com) followed by the quantitative analysis of selected protein bands using Totallab TL 100, version 2006 software (Nonlinear Dynamics Ltd; www.nonlinear.com) running under Windows XP.
All materials used for SDS-PAGE and staining were purchased from Invitrogen (Carlsbad, Calif., US). […] Staining was performed using Simply Blue Safe Stain (Collodial Coomassie G250).
Together with beta-lactoglobulin, alpha-lactalbumin forms the major protein constituent of whey. Because of its high Trp/LNAA ratio, isolated alpha-lactalbumin fractions as well as alpha-lactalbumin hydrolysates have gained popularity for enhancing plasma tryptophan levels. […] According to the present application, a pepsin-resistant molecule with a high Trp/LNAA ratio is essential to maintain high plasma Trp/LNAA ratios longer term. […] This was illustrated in the following experiment. […] After incubation both solutions were heated for 5 minutes at 80 degrees C. to terminate the reaction and small samples were subjected to SDS-PAGE (see Materials & Methods) to test the integrity of the various pepsin treated molecules.

For data set [4] the following is noted: earlier studies (Markus et al., 2000; Booij et al., 2006); cited from earlier work.
The target in data set [5] is T1, pepsin. Kind of data set: Lysozyme hydrolysis by pepsin (in vitro digestibility, DH). In kind it is in vitro ADME. Conditions: pH start 2.8, 2 hours at 37 degrees C.
Protocol: (§1) Both incubations were carried out under pH conditions that are prevalent in the stomach (pepsin) and duodenum (trypsin/chymotrypsin). […] To prevent major pH changes as the result of the ongoing protein hydrolysis, incubation was carried out in a Mc Ilvane buffer (0.2 M citric acid plus Na2HPO4).
For data set [6], the system named is trypsin/chymotrypsin mixture. Kind of data set: Lysozyme hydrolysis by a trypsin/chymotrypsin mixture (in vitro digestibility, DH). In kind it is in vitro ADME, Porcine. Conditions: pH start 7.2, 2 hours at 37 degrees C.
Protocol: as §1
Data set [7] deals with T2, microbial subtilisin (EC 3.4.21.62) (Bacillus licheniformis, UniProt P00780).
T2 construct: purchased Genencor (Leiden, The Netherlands) Protex 6L
T2 sequence (P00780 106-379): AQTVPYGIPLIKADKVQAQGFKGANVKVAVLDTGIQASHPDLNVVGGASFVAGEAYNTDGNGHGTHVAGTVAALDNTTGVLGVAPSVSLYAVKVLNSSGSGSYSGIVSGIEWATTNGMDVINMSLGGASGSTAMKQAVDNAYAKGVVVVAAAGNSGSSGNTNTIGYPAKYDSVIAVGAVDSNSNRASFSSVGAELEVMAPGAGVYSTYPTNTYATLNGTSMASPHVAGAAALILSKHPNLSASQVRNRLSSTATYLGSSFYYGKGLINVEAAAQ
Kind of data set: Susceptibility of lysozyme to subtilisin (Protex 6L) hydrolysis at elevated pH, DH. In kind it is physicochemical. The protocol: The Degree of Hydrolysis (DH) as obtained during incubation with the various proteolytic mixtures was monitored using a rapid OPA test (Nielsen, P. M.; Petersen, D.; Dambmann, C. Improved method for determining food protein degree of hydrolysis. Journal of Food Science 2001, 66, 642-646).
The incubation was carried out for 3 hours at 60 degrees C. with a constant adjustment of the pH using 1M NaOH. The incubations yielded slightly turbid solutions without any significant precipitates. After a heating step to inactivate the subtilisin activity, the DH values of the various incubations were measured according to the protocol described in the Materials & Methods section. […] The pH 7.0 incubation yielded a DH of 6.3, the pH 8.0 incubation a DH of 11.2 and the pH 9.0 incubation a DH of 16.4.

Data set [8] is described as follows: Kinetics of plasma Trp/LNAA ratio after hydrolysed, intact or mixed lysozyme (Example 11). In kind it is in vivo, human. The following applies: inferred from area-under-the-curve. An excerpt: Exclusion criteria were: chronic and current illness, at the discretion of the investigator; history of psychiatric disorders; use of selective serotonin reuptake inhibitors (SSRI); use of supplements targeting the central nervous system, such as supplements containing tryptophan, ephedrine, or St John's wort; egg allergy; drug abuse; participation in any other study involving investigational or marketed products concomitantly; intolerance to artificial sweeteners; any (history of) gastrointestinal disease that interferes with gastrointestinal function, at the discretion of the investigator; use of medication targeting the gastro-intestinal tract, such as antacids. Finally, for women, pregnancy or the use of a medically not accepted contraceptive method is an exclusion criterion as well. All subjects participating in the experiment signed an Informed Consent Form.
The study was performed according to a randomized, double-blind, crossover design with a washout period between the intake of the different treatments of three days at least.
The drinks were presented as sterile products in bottles with straws. […] A research assistant blind to the dietary conditions conducted the administration of the different drinks.
The subjects visited the site between 8 and 9 am, having fasted for at least 8 hours. A flexible cannula for blood drawings was inserted in their non-dominant forearm. […]

Like-named read-outs stand apart in the source and are kept apart here. Peptide text beside a SMILES is read from it.

T1 sequence (P00791 60-385): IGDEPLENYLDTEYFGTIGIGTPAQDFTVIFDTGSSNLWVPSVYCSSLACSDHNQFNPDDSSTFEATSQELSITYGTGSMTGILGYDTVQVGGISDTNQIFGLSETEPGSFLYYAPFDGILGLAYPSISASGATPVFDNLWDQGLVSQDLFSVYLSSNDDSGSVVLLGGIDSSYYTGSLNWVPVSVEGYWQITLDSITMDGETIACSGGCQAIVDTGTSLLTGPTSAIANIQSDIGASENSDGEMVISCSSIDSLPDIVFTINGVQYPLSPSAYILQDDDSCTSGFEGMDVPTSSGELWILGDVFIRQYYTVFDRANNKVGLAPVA

For the compound `N[C@@H](CO)C(=O)N[C@@H](Cc1c[nH]c2ccccc12)C(=O)O` [SYN, Ser-Trp] (H-Ser-Trp-OH), in data set [1], the “increase in plasma Trp/LNAA ratio” value worked out at 263%. Further, the “mood changes (POMS total mood scores)” value in data set [2] is reported as “not significant”.
For `N[C@@H](Cc1c[nH]c2ccccc12)C(=O)O` [TRP, L-tryptophan], the “plasma Trp/LNAA” value is given as 0.11 in data set [1] (both, human, 0 min); 0.12 in data set [1] (both, human, 30 min); 0.29 in data set [1] (both, human, 60 min); 0.31 in data set [1] (both, human, 90 min); 0.32 in data set [1] (both, human, 120 min); 0.24 in data set [1] (both, human, 180 min). Moreover, the “plasma Trp/LNAA” value in data set [1] (both, human, 210 min) is 0.20. In addition, the “increase in plasma Trp/LNAA ratio” value in data set [1] (both, human, 120 min) is 191%. In data set [2] (60 min after the intake), the “mood (POMS total mood scores)” value was “Comparable improvements of mood”.
As to “ALAC: intact alpha-lactalbumin obtained as Biopure (>90% alpha-lactalbumin) from Davisco Foods; in Example 10 part of whey protein (Bipro)”, the “increase in plasma Trp/LNAA ratio” value in data set [1] is reported as 67%. In addition, the “mood changes (POMS total mood scores)” value in data set [2] is recorded as “no mood changes”. Besides, in data set [3], the “quantity of intact protein after incubation with pepsin (SDS-PAGE)” value (from here on “quantity of intact protein”) is listed as “almost completely degraded”. Besides, the “protease resistant according to the test (more than 50% of protein with original molecular weight present)” value is reported as “not “protease resistant”” in data set [3] (listed as alpha-lactoglobulin) and “not protease-resistant” in data set [3] (listed as intact alpha-lactalbumine). For the same compound, the “increases in plasma Trp/LNAA as previously found” value in data set [4] is reported as 50-70%.
For the compound “beta-lactoglobulin: whey protein constituent of Bipro (Davisco), very low Trp/LNAA ratio (0.04)”, in data set [3], the “protease resistant according to the test (more than 50% of protein with original molecular weight present)” value is given as “protease resistant” and the “quantity of intact protein” value is “remains largely intact”.
Turning to “lysozyme: hen egg lysozyme (EC 3.2.1.17), intact protein, obtained as Delvozyme L or Delvozyme G from DSM Food Specialties”, the “DH end (%)” value in data set [5] came to 2.4%; in data set [6], 1.3%. In addition, the DH came out at 6.3 in data set [7] (pH 7.0, 3 hours at 60 degrees C); 11.2 in data set [7] (pH 8.0, 3 hours at 60 degrees C); 16.4 in data set [7] (pH 9.0, 3 hours at 60 degrees C). Besides, the “protease resistant according to the test (more than 50% of protein with original molecular weight present)” value in data set [3] is “protease resistant”. The “quantity of intact protein” value in data set [3] is given as “not significantly diminished”. Further, in data set [8], the “digestion and uptake into the blood” value was “completely digested and taken up into the blood”.
